Target: T1, human PTHrP (1-34) (human)
T1 construct: Synthetic peptide (Peninsula; Peptide Research Institute); Coated on the ELISA plate at 1 µg/ml; used in solid phase RIA for the hybridoma screening; also called parathyroid hormone related peptide (1-34)
Assay: ELISA on coated human PTHrP (1-34)
Procedure: An ELISA plate for determining antigen-binding ability was prepared as follows. Each well of a 96-well ELISA plate (Maxisorp, NUNC) was coated with 100 μl of a coating buffer containing 1 μg/ml of human PTHrP (1-34) and then blocked with 200 μl of a dilution buffer. Subsequently, each well was added with each of the serial dilutions of the COS-7 cell culture supernatant in which each of the hybrid antibodies and humanized antibodies was expressed, or added with each of the serial dilutions of each of the hybrid antibodies and humanized antibodies in a purified form. The plate was incubated at room temperature and washed with PBS-Tween 20. Subsequently, each well was added with 100 μl of alkaline phosphatase-conjugated goat anti-human IgG antibody (TAGO). The plate was incubated at room temperature and washed with PBS-Tween 20. Subsequently, each well was added with 1 mg/ml of a substrate solution (“Sigma 104”, p-nitrophenylphosphoric acid, SIGMA). The solution was measured on its absorbance at 405 nm using Microplate Reader (Bio Rad).

Row | Binder | binding result
1 | antibody having both a humanized H-chain version “a” and a chimeric L-chain (antibody, V domains shown, H-chain C-region is human Cγ1) VH: QVQLVESGGGVVQPGRSLRLSCAASGFTFSSYGMSWVRQAPGKGLEWVATISSGGSYTYYPDSVKGRFTISRDNSKNTLYLQMNSLRAEDTAVYYCARQTTMTYFAYWGQGTLVTVSS VL: QLVLTQSSSASFSLGASAKLTCTLSSQHSTYTIEWYQQQPLKPPKYVMDLKQDGSHSTGDGIPDRFSGSSSGADRYLSISNIQPEDEAMYICGVGDTIKEQFVYVFGGGTKVTVLG | binds
2 | mouse FR1,2/human FR3,4 hybrid antibody with L-chain m/hMBC1Ldλ (antibody, V domains shown, H-chain from hMBC1HcDNA/pCOS1 (humanized version a, human Cγ1); L-chain C-region human λ; Expressed in COS-7 cells) VH: QVQLVESGGGVVQPGRSLRLSCAASGFTFSSYGMSWVRQAPGKGLEWVATISSGGSYTYYPDSVKGRFTISRDNSKNTLYLQMNSLRAEDTAVYYCARQTTMTYFAYWGQGTLVTVSS VL: QLVLTQSSSASFSLGASAKLTCTLSSQHSTYTIEWYQQQPLKPPKYVMDLKQDGSHSTGDGIPDRFSGSSSGAERYLTISSLQSEDEADYICGVGDTIKEQFVYVFGGGTKLTVL | binds
3 | humanized #23-57-137-1 antibody having L-chain version “q” (antibody, V domains shown, Humanized H-chain version a with human Cγ1; L-chain with human λ C-region; also called humanized antibody L-chain version “q”; hMBC1HcDNA and hMBC1Lqλ) VH: QVQLVESGGGVVQPGRSLRLSCAASGFTFSSYGMSWVRQAPGKGLEWVATISSGGSYTYYPDSVKGRFTISRDNSKNTLYLQMNSLRAEDTAVYYCARQTTMTYFAYWGQGTLVTVSS VL: QLVLTQSPSASASLGASVKLTCTLSSQHSTYTIEWYQQQPEKGPKYLMDLKQDGSHSTGDGIPDRFSGSSSGAERYLTISSLQSEDEADYICGVGDTIKEQFVYVFGGGTKLTVLG | binds
4 | humanized #23-57-137-1 antibody having L-chain version “t” (antibody, V domains shown, Humanized H-chain version a with human Cγ1; L-chain with human λ C-region; also called hMBC1HcDNA/pCOS1 and hMBC1Ltλ/pCOS1) VH: QVQLVESGGGVVQPGRSLRLSCAASGFTFSSYGMSWVRQAPGKGLEWVATISSGGSYTYYPDSVKGRFTISRDNSKNTLYLQMNSLRAEDTAVYYCARQTTMTYFAYWGQGTLVTVSS VL: QLVLTQSPSASASLGASVKLTCTLSSQHSTYTIEWYQQQPEKGPRYVMDLKQDGSHSTGDGIPDRFSGSSSGAERYLTISSLQSEDEADYICGVGDTIKEQFVYVFGGGTKLTVLG | binds
5 | human FR1/mouse FR2,3,4 hybrid antibody with L-chain hmmMBC1L(λ) (antibody, V domains shown, H-chain from hMBC1HcDNA/pCOS1 (humanized version a, human Cγ1); L-chain C-region human λ; Expressed in COS-7 cells; also called FR1/FR2 hybrid antibody) VH: QVQLVESGGGVVQPGRSLRLSCAASGFTFSSYGMSWVRQAPGKGLEWVATISSGGSYTYYPDSVKGRFTISRDNSKNTLYLQMNSLRAEDTAVYYCARQTTMTYFAYWGQGTLVTVSS VL: QLVLTQSPSASASLGASVKLTCTLSSQHSTYTIEWYQQQPLKPPKYVMDLKQDGSHSTGDGIPDRFSGSSSGADRYLSISNIQPEDEAMYICGVGDTIKEQFVYVFGGGTKVTVL | binds
6 | humanized #23-57-137-1 antibody having L-chain version “j” (antibody, V domains shown, Humanized H-chain version a with human Cγ1; L-chain with human λ C-region (Cλ/pUC19); also called hMBC1HcDNA/pCOS1 and hMBC1Ljλ/pCOS1) VH: QVQLVESGGGVVQPGRSLRLSCAASGFTFSSYGMSWVRQAPGKGLEWVATISSGGSYTYYPDSVKGRFTISRDNSKNTLYLQMNSLRAEDTAVYYCARQTTMTYFAYWGQGTLVTVSS VL: QLVLTQSPSASASLGASVKLTCTLSSQHSTYTIEWYQQQPEKGPKYLMDLKQDGSHSTGDGIPDRFSGSSSGAERYLTISSLQSEDEADYYCGVGDTIKEQFVYVFGGGTKLTVLG | binds
7 | humanized #23-57-137-1 antibody having L-chain version “l” (antibody, V domains shown, Humanized H-chain version a with human Cγ1; L-chain with human λ C-region; also called hMBC1HcDNA/pCOS1 and hMBC1Llλ/pCOS1) VH: QVQLVESGGGVVQPGRSLRLSCAASGFTFSSYGMSWVRQAPGKGLEWVATISSGGSYTYYPDSVKGRFTISRDNSKNTLYLQMNSLRAEDTAVYYCARQTTMTYFAYWGQGTLVTVSS VL: QLVLTQSPSASASLGASVKLTCTLSSQHSTYTIEWYQQQPEKGPKYVMDLKQDGSHSTGDGIPDRFSGSSSGAERYLTISSLQSEDEADYYCGVGDTIKEQFVYVFGGGTKLTVLG | binds
8 | mouse FR1,2/human FR3,4 hybrid antibody with L-chain m/hMBC1Laλ (antibody, V domains shown, H-chain from hMBC1HcDNA/pCOS1 (humanized version a, human Cγ1); L-chain C-region human λ; Expressed in COS-7 cells) VH: QVQLVESGGGVVQPGRSLRLSCAASGFTFSSYGMSWVRQAPGKGLEWVATISSGGSYTYYPDSVKGRFTISRDNSKNTLYLQMNSLRAEDTAVYYCARQTTMTYFAYWGQGTLVTVSS VL: QLVLTQSSSASFSLGASAKLTCTLSSQHSTYTIEWYQQQPLKPPKYVMDLKQDGSHSTGDGIPDRFSGSSSGAERYLTISSLQSEDEADYYCGVGDTIKEQFVYVFGGGTKLTVL | binds
9 | humanized #23-57-137-1 antibody having L-chain version “o” (antibody, V domains shown, Humanized H-chain version a with human Cγ1; L-chain with human λ C-region; also called hMBC1HcDNA/pCOS1 and hMBC1Loλ/pCOS1) VH: QVQLVESGGGVVQPGRSLRLSCAASGFTFSSYGMSWVRQAPGKGLEWVATISSGGSYTYYPDSVKGRFTISRDNSKNTLYLQMNSLRAEDTAVYYCARQTTMTYFAYWGQGTLVTVSS VL: QLVLTQSPSASASLGASVKLTCTLSSQHSTYTIEWYQQQPEKGPRYVMDLKQDGSHSTGDGIPDRFSGSSSGAERYLTISSLQSEDEADYYCGVGDTIKEQFVYVFGGGTKLTVLG | binds
10 | humanized #23-57-137-1 antibody having L-chain version “m” (antibody, V domains shown, Humanized H-chain version a with human Cγ1; L-chain with human λ C-region; also called hMBC1HcDNA/pCOS1 and hMBC1Lmλ/pCOS1) VH: QVQLVESGGGVVQPGRSLRLSCAASGFTFSSYGMSWVRQAPGKGLEWVATISSGGSYTYYPDSVKGRFTISRDNSKNTLYLQMNSLRAEDTAVYYCARQTTMTYFAYWGQGTLVTVSS VL: QLVLTQSPSASASLGASVKLTCTLSSQHSTYTIEWYQQQPEKGPRYLMDLKQDGSHSTGDGIPDRFSGSSSGAERYLTISSLQSEDEADYYCGVGDTIKEQFVYVFGGGTKLTVLG | binds
